{"source": "paper PMC60004", "key": {"[1]": {"molecular_target": "Bombyx mori cadherin-like receptor BtR175, native, 175 kDa (Bombyx mori (endogenous in larval midgut))", "assay": "SPR"}, "[2]": {"molecular_target": "Bombyx mori aminopeptidase N, native, 115-kDa (115-120 kDa) Cry1Aa-binding receptor (Bombyx mori (endogenous in larval midgut))", "assay": "SPR"}}}
{"substance": "Hybrid toxin 4109 (domains I and II of Cry1Aa, domain III of Cry1Ac)", "values": [{"measurement": "Kd", "setting": "[1]", "result": 2.6, "unit": "nM"}, {"measurement": "koff", "setting": "[1]", "result": "3.34e-05", "unit": "s⁻¹"}, {"measurement": "kon", "setting": "[1]", "result": 13000, "unit": "M⁻¹ s⁻¹"}, {"measurement": "Kd", "setting": "[2]", "result": 78, "unit": "nM"}, {"measurement": "koff", "setting": "[2]", "result": 0.0015, "unit": "s⁻¹"}, {"measurement": "kon", "setting": "[2]", "result": 19000, "unit": "M⁻¹ s⁻¹"}]}
